From patent US20100272750A1

Each binder was assayed against HLA A0301 (human) (assay: 125I-probe competition, purified HLA). Conditions: not given.
For STAAALYWYK (modifications not checked) [HPV16.E1.314], the IC50 was 5 nM. With ATMCRHYKR (modifications not checked) [HPV16.E1.406] the IC50 was 90 nM. Work on MVMLMLVRFK (modifications not checked) [HPV31.E1.253] yielded an IC50 of 10 nM. SVICFVNSK (modifications not checked) [HPV16.E1.497] was tested, and the IC50 was 109 nM. With ISFAGIVTK (modifications not checked) [HPV31.E2.205] the IC50 was 17 nM. With STWHWTGCNK (modifications not checked) [HPV45.E2.322] the IC50 was 14 nM. With AVMCRHYKR (modifications not checked) [HPV45.E1.399] the IC50 was 311 nM.

What follows are binders tested against HLA A0206 (human) (assay: 125I-probe competition, purified HLA). Conditions: not given.
Work on CLYLHIQSL (modifications not checked) [HPV16.E1.259] yielded an IC50 of 100 nM. Binder YVVWDSIYYI (modifications not checked) [HPV45.E2.137] has an IC50 of 20 nM. FVYIPLFLI (modifications not checked) [HPV16.E5.66] gave an IC50 of 59 nM. GTLGIVCPV (modifications not checked) [HPV16.E7.85.V9] gave an IC50 of 33 nM. Binder TVYVFCFLL (modifications not checked) [HPV18.E5.51] has an IC50 of 26 nM. YTNWKFIYL (modifications not checked) [HPV31.E2.131] was tested, and the IC50 was 84 nM. Binder FLLCFCVLL (modifications not checked) [HPV31.E5.15] has an IC50 of 2.6 nM. Binder FIYIPLFVI (modifications not checked) [HPV31.E5.66] has an IC50 of 8.1 nM. In the case of VAWDSVYYM (modifications not checked) [HPV18.E2.136], the IC50 is reported as 790 nM. TLYAHIQCL (modifications not checked) [HPV45.E1.252] showed an IC50 of 417 nM.

Each binder was assayed against HLA A0201 (human) (assay: 125I-probe competition, purified HLA). Conditions: not given.
With CLYLHIQSL (modifications not checked) [HPV16.E1.259] the IC50 was 73 nM. YVVWDSIYYI (modifications not checked) [HPV45.E2.137] was tested, and the IC50 was 77 nM. Work on FVYIPLFLI (modifications not checked) [HPV16.E5.66] yielded an IC50 of 206 nM. In the case of GTLGIVCPV (modifications not checked) [HPV16.E7.85.V9], the IC50 is reported as 20 nM. In the case of TVYVFCFLL (modifications not checked) [HPV18.E5.51], the IC50 is reported as 175 nM. YTNWKFIYL (modifications not checked) [HPV31.E2.131] showed an IC50 of 69 nM. Work on FLLCFCVLL (modifications not checked) [HPV31.E5.15] yielded an IC50 of 9.6 nM. FIYIPLFVI (modifications not checked) [HPV31.E5.66] gave an IC50 of 26 nM. VAWDSVYYM (modifications not checked) [HPV18.E2.136] gave an IC50 of 172 nM. In the case of TLYAHIQCL (modifications not checked) [HPV45.E1.252], the IC50 is reported as 34 nM.

The binders below were run against HLA A3301 (human) (assay: 125I-probe competition, purified HLA). Conditions: not given.
Work on STAAALYWYK (modifications not checked) [HPV16.E1.314] yielded an IC50 of 128 nM. ATMCRHYKR (modifications not checked) [HPV16.E1.406] gave an IC50 of 17 nM. MVMLMLVRFK (modifications not checked) [HPV31.E1.253] was tested, and the IC50 was 20 nM. SVICFVNSK (modifications not checked) [HPV16.E1.497] was tested, and the IC50 was 51 nM. For ISFAGIVTK (modifications not checked) [HPV31.E2.205], the IC50 was 4370 nM. In the case of STWHWTGCNK (modifications not checked) [HPV45.E2.322], the IC50 is reported as 428 nM. In the case of AVMCRHYKR (modifications not checked) [HPV45.E1.399], the IC50 is reported as 24 nM.

These binders were tested against HLA A0202 (human) (assay: 125I-probe competition, purified HLA). Conditions: not given.
In the case of CLYLHIQSL (modifications not checked) [HPV16.E1.259], the IC50 is reported as 45 nM. In the case of YVVWDSIYYI (modifications not checked) [HPV45.E2.137], the IC50 is reported as 27 nM. For FVYIPLFLI (modifications not checked) [HPV16.E5.66], the IC50 was 323 nM. In the case of GTLGIVCPV (modifications not checked) [HPV16.E7.85.V9], the IC50 is reported as 49 nM. With TVYVFCFLL (modifications not checked) [HPV18.E5.51] the IC50 was 587 nM. For YTNWKFIYL (modifications not checked) [HPV31.E2.131], the IC50 was 14 nM. Binder FLLCFCVLL (modifications not checked) [HPV31.E5.15] has an IC50 of 13 nM. Work on FIYIPLFVI (modifications not checked) [HPV31.E5.66] yielded an IC50 of 97 nM. Binder VAWDSVYYM (modifications not checked) [HPV18.E2.136] has an IC50 of 603 nM. In the case of TLYAHIQCL (modifications not checked) [HPV45.E1.252], the IC50 is reported as 4.9 nM.

Each binder was assayed against HLA A3101 (human) (assay: 125I-probe competition, purified HLA). Conditions: not given.
For STAAALYWYK (modifications not checked) [HPV16.E1.314], the IC50 was 35 nM. Binder ATMCRHYKR (modifications not checked) [HPV16.E1.406] has an IC50 of 10 nM. SVICFVNSK (modifications not checked) [HPV16.E1.497] showed an IC50 of 25 nM. ISFAGIVTK (modifications not checked) [HPV31.E2.205] was tested, and the IC50 was 115 nM. Work on STWHWTGCNK (modifications not checked) [HPV45.E2.322] yielded an IC50 of 54 nM. AVMCRHYKR (modifications not checked) [HPV45.E1.399] gave an IC50 of 52 nM.

What follows are binders tested against HLA A0101 (human) (assay: 125I-probe competition, purified HLA). Conditions: not given.
Binder KSAIVTLTY (modifications not checked) [HPV16.E2.329] has an IC50 of 9 nM. STDLRDHIDY (modifications not checked) [HPV16.E2.23] gave an IC50 of 113 nM. In the case of LQDKILDHY (modifications not checked) [HPV45.E2.17], the IC50 is reported as 32 nM. In the case of NTELYNLLI (modifications not checked) [HPV45.E6.95], the IC50 is reported as 32 nM.

The binders below were run against HLA A0203 (human) (assay: 125I-probe competition, purified HLA). Conditions: not given.
In the case of CLYLHIQSL (modifications not checked) [HPV16.E1.259], the IC50 is reported as 21 nM. Binder YVVWDSIYYI (modifications not checked) [HPV45.E2.137] has an IC50 of 248 nM. Binder FVYIPLFLI (modifications not checked) [HPV16.E5.66] has an IC50 of 63 nM. With GTLGIVCPV (modifications not checked) [HPV16.E7.85.V9] the IC50 was 68 nM. Work on TVYVFCFLL (modifications not checked) [HPV18.E5.51] yielded an IC50 of 769 nM. YTNWKFIYL (modifications not checked) [HPV31.E2.131] gave an IC50 of 31 nM. FLLCFCVLL (modifications not checked) [HPV31.E5.15] showed an IC50 of 34 nM. Binder FIYIPLFVI (modifications not checked) [HPV31.E5.66] has an IC50 of 47 nM. In the case of VAWDSVYYM (modifications not checked) [HPV18.E2.136], the IC50 is reported as 1330 nM. With TLYAHIQCL (modifications not checked) [HPV45.E1.252] the IC50 was 6.2 nM.

Each binder was assayed against HLA A3002 (human) (assay: 125I-probe competition, purified HLA). Conditions: not given.
Work on KSAIVTLTY (modifications not checked) [HPV16.E2.329] yielded an IC50 of 6 nM. With STDLRDHIDY (modifications not checked) [HPV16.E2.23] the IC50 was 17 nM. For LQDKILDHY (modifications not checked) [HPV45.E2.17], the IC50 was 836 nM.

Same assay, conditions: remark: other sources report otherwise
Binder TLEKLTNTGLY (modifications not checked) [HPV18.E6.89] has an IC50 of 476 nM.

Each binder was assayed against HLA A6801 (human) (assay: 125I-probe competition, purified HLA). Conditions: not given.
For STAAALYWYK (modifications not checked) [HPV16.E1.314], the IC50 was 6 nM. In the case of ATMCRHYKR (modifications not checked) [HPV16.E1.406], the IC50 is reported as 35 nM. Work on MVMLMLVRFK (modifications not checked) [HPV31.E1.253] yielded an IC50 of 10 nM. SVICFVNSK (modifications not checked) [HPV16.E1.497] was tested, and the IC50 was 5.4 nM. STWHWTGCNK (modifications not checked) [HPV45.E2.322] showed an IC50 of 18 nM. In the case of AVMCRHYKR (modifications not checked) [HPV45.E1.399], the IC50 is reported as 29 nM.

What follows are binders tested against HLA A6802 (human) (assay: 125I-probe competition, purified HLA). Conditions: not given.
With CLYLHIQSL (modifications not checked) [HPV16.E1.259] the IC50 was 1780 nM. For YVVWDSIYYI (modifications not checked) [HPV45.E2.137], the IC50 was 30 nM. In the case of FVYIPLFLI (modifications not checked) [HPV16.E5.66], the IC50 is reported as 251 nM. For GTLGIVCPV (modifications not checked) [HPV16.E7.85.V9], the IC50 was 32 nM. Work on TVYVFCFLL (modifications not checked) [HPV18.E5.51] yielded an IC50 of 41 nM. Work on YTNWKFIYL (modifications not checked) [HPV31.E2.131] yielded an IC50 of 146 nM. FLLCFCVLL (modifications not checked) [HPV31.E5.15] was tested, and the IC50 was 237 nM. In the case of FIYIPLFVI (modifications not checked) [HPV31.E5.66], the IC50 is reported as 157 nM. For VAWDSVYYM (modifications not checked) [HPV18.E2.136], the IC50 was 5150 nM. Binder TLYAHIQCL (modifications not checked) [HPV45.E1.252] has an IC50 of 1610 nM.

These binders were tested against HLA A1101 (human) (assay: 125I-probe competition, purified HLA). Conditions: not given.
Binder STAAALYWYK (modifications not checked) [HPV16.E1.314] has an IC50 of 2 nM. ATMCRHYKR (modifications not checked) [HPV16.E1.406] was tested, and the IC50 was 14 nM. For SVICFVNSK (modifications not checked) [HPV16.E1.497], the IC50 was 2.2 nM. ISFAGIVTK (modifications not checked) [HPV31.E2.205] was tested, and the IC50 was 1.6 nM. STWHWTGCNK (modifications not checked) [HPV45.E2.322] gave an IC50 of 2.8 nM. In the case of AVMCRHYKR (modifications not checked) [HPV45.E1.399], the IC50 is reported as 38 nM.

Each binder was assayed against HLA A2601 (human) (assay: 125I-probe competition, purified HLA). Conditions: not given.
STDLRDHIDY (modifications not checked) [HPV16.E2.23] gave an IC50 of 758 nM. With LQDKILDHY (modifications not checked) [HPV45.E2.17] the IC50 was 5000 nM. NTELYNLLI (modifications not checked) [HPV45.E6.95] showed an IC50 of 17300 nM.

Same assay, conditions: remark: other sources report otherwise
TLEKLTNTGLY (modifications not checked) [HPV18.E6.89] showed an IC50 of 265 nM.
